This assay deals with neuronal receptor for agrin (mouse (endogenous in cortical neurons)). The experiment in a line: immunostaining of cells or tissue.

As for “rC-Ag_(y4z8), soluble 95-kD COOH-terminal fragment of rat agrin (domain or fragment)”, the reduction of C-Ag20z8 labeling at a 1:1 molar ratio of C-Ag20z8 to rC-Ag (y4z8) stood at 30%.

For the origin of these results see PMC2172957.
